In patent KR20220160483A (dated 2022):

T1: 재조합 인간 ASM(acid sphingomyelinase) 단백질 (human, UniProt P17405 62-630, limits assumed)
T1 construct: Recombinant protein, bought (R&D systems in the ELISA); also called 인간 ASM 단백질; recombinant human ASM protein
T1 sequence: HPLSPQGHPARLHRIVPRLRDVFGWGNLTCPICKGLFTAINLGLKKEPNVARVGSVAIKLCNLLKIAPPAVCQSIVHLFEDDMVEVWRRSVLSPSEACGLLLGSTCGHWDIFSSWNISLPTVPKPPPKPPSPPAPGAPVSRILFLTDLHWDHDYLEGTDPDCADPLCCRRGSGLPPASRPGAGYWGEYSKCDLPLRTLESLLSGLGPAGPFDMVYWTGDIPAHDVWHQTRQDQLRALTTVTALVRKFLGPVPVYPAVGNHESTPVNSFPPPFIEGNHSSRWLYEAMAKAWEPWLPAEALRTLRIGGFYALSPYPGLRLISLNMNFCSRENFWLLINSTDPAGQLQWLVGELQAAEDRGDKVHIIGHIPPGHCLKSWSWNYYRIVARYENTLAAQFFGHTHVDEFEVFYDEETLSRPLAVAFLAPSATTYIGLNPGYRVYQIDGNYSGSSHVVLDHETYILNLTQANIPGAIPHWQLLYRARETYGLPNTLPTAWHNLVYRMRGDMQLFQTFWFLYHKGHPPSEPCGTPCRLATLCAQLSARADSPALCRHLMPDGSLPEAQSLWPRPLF

T2: 재조합 마우스 ASM(acid sphingomyelinase) 단백질 (mouse, UniProt Q04519 45-626, limits assumed)
T2 construct: Recombinant protein; also called 마우스 ASM 단백질; recombinant mouse ASM protein
T2 sequence: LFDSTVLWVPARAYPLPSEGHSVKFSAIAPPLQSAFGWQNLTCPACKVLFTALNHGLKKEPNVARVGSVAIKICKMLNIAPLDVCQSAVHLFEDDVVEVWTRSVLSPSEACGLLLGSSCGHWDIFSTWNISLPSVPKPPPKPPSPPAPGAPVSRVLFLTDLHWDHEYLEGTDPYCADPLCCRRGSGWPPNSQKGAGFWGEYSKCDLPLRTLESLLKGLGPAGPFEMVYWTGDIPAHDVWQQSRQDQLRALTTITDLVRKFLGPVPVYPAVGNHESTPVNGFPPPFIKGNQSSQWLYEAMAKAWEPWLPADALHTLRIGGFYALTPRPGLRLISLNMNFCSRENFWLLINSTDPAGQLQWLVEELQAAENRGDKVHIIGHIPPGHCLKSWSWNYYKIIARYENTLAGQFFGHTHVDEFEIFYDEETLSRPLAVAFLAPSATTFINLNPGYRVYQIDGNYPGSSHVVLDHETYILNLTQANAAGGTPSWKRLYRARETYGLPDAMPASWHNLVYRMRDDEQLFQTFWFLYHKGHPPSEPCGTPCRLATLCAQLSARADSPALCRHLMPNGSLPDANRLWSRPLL


Columns and labels:
[1] = molecular target: T1, 재조합 인간 ASM(acid sphingomyelinase) 단백질; assay: ELISA, recombinant human ASM coated at 1 ㎍/㎖, anti-mouse IgG-HRP
[2] = molecular target: T1, 재조합 인간 ASM(acid sphingomyelinase) 단백질; assay: BLI (Octet QK384), human ASM amine-coupled on AR2G sensor, antibody 0.4, 2, 10 nM
[3] = molecular target: T2, 재조합 마우스 ASM(acid sphingomyelinase) 단백질; assay: BLI (Octet QK384), mouse ASM amine-coupled on AR2G sensor, antibody 0.4, 2, 10 nM; poor fit (RMax 0.0185, Full R2 0.5527), text does not count it as binding
[4] = molecular target: T2, 재조합 마우스 ASM(acid sphingomyelinase) 단백질; assay: BLI (Octet QK384), mouse ASM amine-coupled on AR2G sensor, antibody 0.4, 2, 10 nM
[5] = molecular target: T2, 재조합 마우스 ASM(acid sphingomyelinase) 단백질; assay: BLI (Octet QK384), mouse ASM amine-coupled on AR2G sensor, antibody 0.4, 2, 10 nM; no signal (RMax 0, Full R2 0), text does not count it as binding

EC50 [1]	Kd [2]	koff [2]	kon [2]	Kd [3]	koff [3]	kon [3]	Kd [4]	koff [4]	kon [4]	Kd [5]	koff [5]	kon [5]	Binder
0.0815 nM	1.16 nM	0.000728 s⁻¹	626000 M⁻¹ s⁻¹	0.0425 nM	0.000159 s⁻¹	3.76e+06 M⁻¹ s⁻¹	–	–	–	–	–	–	#9101 항체 (antibody, mouse IgG1, V domains shown) VH: EVQLLESGGGLVQPGGSLRLSCAASGFTFSNYAMSWVRQAPGKGLEWVSGIYPNGGNKYYADSVKGRFTISRDNSKNTLYLQMNSLRAEDTAVYYCAKNAYRFDYWGQGTLVTVSS VL: QSVLTQPPSASGTPGQRVTISCSGSSSNIGNNYVSWYQQLPGTAPKLLIYADSKRPSGVPDRFSGSKSGTSASLAIGGLRSEDEADYYCGSWDYSLNAYVFGGGTKLTVLG
0.327 nM	0.119 nM	2.96e-05 s⁻¹	249000 M⁻¹ s⁻¹	–	–	–	3.39 nM	0.00156 s⁻¹	459000 M⁻¹ s⁻¹	–	–	–	#9108 항체 (antibody, mouse IgG1, V domains shown) VH: EVQLLESGGGLVQPGGSLRLSCAASGFTFSNYAMSWVRQAPGKGLEWVSAIYPGGGSIYYADSVKGRFTISRDNSKNTLYLQMNSLRAEDTAVYYCARDVLGLTPKPFDYWGQGTLVTVSS VL: QSVLTQPPSASGTPGQRVTLSCTGSSSNIGSNTVYWYQQLPGTAPKLLIYANSQRPSGVPDRFSGSKSGTSASLAISGLRSEDEADYYCGSWDYSLSGYVFGGGTKLTVLG
–	0.564 nM	0.000656 s⁻¹	1.16e+06 M⁻¹ s⁻¹	–	–	–	–	–	–	< 0.001 nM	< 1e-07 s⁻¹	1e+06 M⁻¹ s⁻¹	#9113 항체 (antibody, mouse IgG1, V domains shown, also called #9113 mIgG1) VH: EVQLLESGGGLVQPGGSLRLSCAASGFTFSSYYMSWVRQAPGKGLEWVSSISPGGSSIYYADSVKGRFTISRDNSKNTLYLQMNSLRAEDTAVYYCAKGASLFDYWGQGTLVTVSS VL: QSVLTQPPSASGTPGQRVTISCSGSSSNIGNNAVSWYQQLPGTAPKLLIYSDNKRPSGVPDRFSGSKSGTSASLAISGLRSEDEADYYCGTWDASLNAYVFGGGTKLTVLG
1.95 nM	0.209 nM	8.18e-05 s⁻¹	392000 M⁻¹ s⁻¹	–	–	–	0.638 nM	0.000198 s⁻¹	310000 M⁻¹ s⁻¹	–	–	–	#9104 항체 (antibody, mouse IgG1, V domains shown) VH: EVQLLESGGGLVQPGGSLRLSCAASGFTFSNYYMSWVRQAPGKGLEWVSGIYYGSGNIYYADSVKGRFTISRDNSKNTLYLQMNSLRAEDTAVYYCARDTPGFDYWGQGTLVTVSS VL: QSVLTQPPSASGTPGQRVTISCTGSSSNIGNNAVNWYQQLPGTAPKLLIYYDSHRPSGVPDRFSGSKSGTSASLAISGLRSEDEADYYCGAWDYSLSAYVFGGGTKLTVLG
0.0954 nM	0.252 nM	0.000105 s⁻¹	416000 M⁻¹ s⁻¹	–	–	–	0.498 nM	0.000243 s⁻¹	489000 M⁻¹ s⁻¹	–	–	–	#9102 항체 (antibody, mouse IgG1, V domains shown) VH: EVQLLESGGGLVQPGGSLRLSCAASGFTFSGYYMSWVRQAPGKGLEWVSLISPGSGSIYYADSVKGRFTISRDNSKNTLYLQMNSLRAEDTAVYYCAKSWHHFDYWGQGTLVTVSS VL: not shown
0.758 nM	–	–	–	–	–	–	–	–	–	–	–	–	#9123 항체 (antibody, mouse IgG1, V domains shown, also called #9123 mIgG1) VH: EVQLLESGGGLVQPGGSLRLSCAASGFTFSDYAMSWVRQAPGKGLEWVSAISYGGGNIYYADSVKGRFTISRDNSKNTLYLQMNSLRAEDTAVYYCARVGGMCTRRQCYYDYGMDVWGQGTLVTVSS VL: not shown
